In patent publication US20150056205A1, “STEROID SPARING AGENTS AND METHODS OF USING SAME” (BIOGEN IDEC MA INC., priority 2004, published 2015):

Key:
[1] = system: pregnant cynomolgus monkeys; assay: follow-up reproductive toxicity study; assay type: in vivo, cynomolgus monkey; conditions: two in the control
Experimental: (§1) In mice, there is evidence that α4 integrin and VCAM-1 play a role in placental and cardiac development, and they may also play a wider role in fetal development. There is, therefore, a risk of an abortifacient effect or teratogenicity if α4 integrin is blocked by natalizumab. A preliminary reproductive toxicity study exposed groups of five pregnant cynomolgus monkeys to repeated intravenous doses of 0.06, 0.3, or 30 mg/kg natalizumab. One of five pregnant females in the 30 mg/kg group aborted at Day 31 of gestation after receiving five doses of natalizumab. Because the overall rate of abortion fell within the rate of spontaneous abortion in this species, the event was not believed to be related to natalizumab. An ongoing follow-up reproductive toxicity study has exposed groups of 10 to 15 pregnant cynomolgus monkeys to repeated intravenous doses of 3, 10, or 30 mg/kg. Embryo deaths have occurred at similar rates in all treatment groups: two in the control, one in the 3 mg/kg, two in the 10 mg/kg and two in the 30 mg/kg groups respectively. As a precaution, women of childbearing potential must utilize effective contraception throughout the duration of the study and for at least 3 months after the last infusion of study drug, and must have a negative pregnancy test at the time of each natalizumab dosing.

α4 integrin = target: T1, α4 integrin (Homo sapiens, UniProt P13612); assay: single dose pharmacokinetics and α4 integrin receptor saturation in clinical trials; assay type: in vivo
T1 construct: endogenous in cells; host or cells: circulating leukocytes of healthy volunteers and MS/IBD subjects (in vivo)
Experimental: The initial dose of natalizumab selected for clinical evaluation was based on non-clinical studies in the guinea pig Experimental Allergic Encephalitis (EAE) model. […] A single dose of 3 mg/kg appeared to provide serum concentrations of natalizumab associated with α4 integrin receptor blockade for up to approximately 3 weeks, and 6 mg/kg for about 6 weeks.
Natalizumab has been evaluated in all clinical trials to date by administration of dose adjusted for bodyweight. […] A single infusion of a higher dose of 6 mg/kg natalizumab produced α4 integrin saturation levels which were slightly higher and more prolonged (approximately 6 weeks).

[2] = system: pregnant cynomolgus monkeys; assay: preliminary reproductive toxicity study; assay type: in vivo; conditions: 30 mg/kg group, repeated intravenous doses, Day 31 of gestation after five doses
Experimental: as §1

[3] = system: subjects with moderately to severely active Crohn's disease; assay: placebo-controlled one or two infusion study in moderately to severely active Crohn's disease; assay type: in vivo; conditions: for subjects withdrawn due to adverse events: placebo 2; for subjects reporting a serious adverse event: placebo 9
Experimental: Another earlier study was a double-blind, placebo-controlled, parallel group, multicenter, efficacy, safety, and tolerability study of either one or two intravenous infusions of placebo, 3 or 6 mg/kg natalizumab in subjects with moderately to severely active Crohn's disease. […] Sixty-eight subjects were randomized to a single infusion of 3 mg/kg, 66 to two infusions of 3 mg/kg at a 4-week interval, 51 to two infusions of 6 mg/kg at a 4-week interval and 63 to receive placebo.

[4] = Week 6, two infusions of 3 mg/kg

Q: With natalizumab as the substance, how does the embryo deaths ([1]; 3 mg/kg repeated intravenous doses) read?
A: one

Q: And the embryo deaths ([1]; 10 mg/kg repeated intravenous doses)?
A: two

Q: What about the embryo deaths ([1]; 30 mg/kg repeated intravenous doses) of the same substance?
A: two

Q: What about the “time serum concentrations, receptor saturation and inhibition of cell adhesion are maintained” value (α4 integrin; 3 mg/kg infusion) of the same substance?
A: 3-4 weeks

Q: And the “natalizumab serum concentrations maintained” value (α4 integrin; 3 mg/kg infusion, healthy volunteers, subjects with MS and IBD)?
A: 2.5 to 3.0 µg/mL

Q: And the “clearance, dependence on bodyweight” value (α4 integrin; human, in vivo)?
A: largely independent of bodyweight

Q: And the “duration of serum concentrations associated with α4 integrin receptor blockade” value (α4 integrin; single dose of 3 mg/kg)?
A: approximately 3 weeks

Q: What about the “duration of serum concentrations associated with α4 integrin receptor blockade” value (α4 integrin; single dose of 6 mg/kg) of the same substance?
A: about 6 weeks

Q: And the “duration of α4 integrin saturation” value (α4 integrin; single infusion of 6 mg/kg)?
A: approximately 6 weeks

Q: What about the “pregnant females that aborted” value [2] of the same substance?
A: One of five

Q: What about the “remission rate (CDAI<150)” value [3, 4] of the same substance?
A: 46%

Q: What about the “response rate (≧70 point drop in CDAI)” value [3, 4] of the same substance?
A: 73%

Q: And the “response rate (≧100 drop in CDAI)” value [3, 4]?
A: 56%

Q: And the “remission rates (CDAI<150)” value ([3]; Weeks 8 and 12, two infusions of 3 mg/kg and two infusions of 6 mg/kg)?
A: 41-43%

Q: And the C-reactive protein ([3]; in vivo)?
A: decreases

Q: What about the “quality of life, Inflammatory Bowel Disease Questionnaire” value ([3]; in vivo) of the same substance?
A: Statistically significant improvements

Q: What about the “subjects withdrawn due to adverse events” value ([3]; single 3.0 mg/kg infusion) of the same substance?
A: 1

Q: And the “subjects reporting a serious adverse event” value ([3]; single 3.0 mg/kg infusion)?
A: 8

Q: And the safety and tolerability ([3]; subjects with active CD)?
A: safe and well tolerated

Q: What about the “subjects withdrawn due to adverse events” value ([3]; two 3 mg/kg infusions) of the same substance?
A: 2

Q: What about the “subjects reporting a serious adverse event” value ([3]; two 3 mg/kg infusions) of the same substance?
A: 8

Q: What about the “subjects withdrawn due to adverse events” value ([3]; two 6 mg/kg infusions) of the same substance?
A: 3

Q: What about the “subjects reporting a serious adverse event” value ([3]; two 6 mg/kg infusions) of the same substance?
A: 7
